Experimental findings from patent EP2877200B1 are described below.

Assay [1] concerns the target human Type 1 IGF receptor (human) (UniProt P08069). Put plainly: competitive displacement of 125I-Tyr31 IGF-I from IGF-1R.
The target is the same in assay [2]. As to the kind of experiment: competitive displacement of 125I-Tyr31 IGF-I from IGF-1R (different receptor preparation from Tables 1A-1C).

For orientation: Kd means a measure of binding affinity in units of concentration. The low end stands for tighter binding, the high end for weaker binding. Take “[Lys^B28, Pro^B29]-insulin (ligand; other documents disagree on this pair)”: the Kd in assay [1] turned out to be 8.39 nM; in assay [2], 3.86 nM. As for “α-D-mannopyranoside-O^β-Thr^B30-[His^A4, His^A8, Gly^A21]-insulin (ligand)”, the Kd in assay [1] came to 41.8 nM.
